The target of experiment [1] is T1, heterodimeric multidrug resistance ABC transporter OmrDE (Omithinimicrobium cerasi strain USBA17B2, UniProt A0A285VW85 1-577; A0A285VWG3 1-661).
T1 sequence (looked up) 1: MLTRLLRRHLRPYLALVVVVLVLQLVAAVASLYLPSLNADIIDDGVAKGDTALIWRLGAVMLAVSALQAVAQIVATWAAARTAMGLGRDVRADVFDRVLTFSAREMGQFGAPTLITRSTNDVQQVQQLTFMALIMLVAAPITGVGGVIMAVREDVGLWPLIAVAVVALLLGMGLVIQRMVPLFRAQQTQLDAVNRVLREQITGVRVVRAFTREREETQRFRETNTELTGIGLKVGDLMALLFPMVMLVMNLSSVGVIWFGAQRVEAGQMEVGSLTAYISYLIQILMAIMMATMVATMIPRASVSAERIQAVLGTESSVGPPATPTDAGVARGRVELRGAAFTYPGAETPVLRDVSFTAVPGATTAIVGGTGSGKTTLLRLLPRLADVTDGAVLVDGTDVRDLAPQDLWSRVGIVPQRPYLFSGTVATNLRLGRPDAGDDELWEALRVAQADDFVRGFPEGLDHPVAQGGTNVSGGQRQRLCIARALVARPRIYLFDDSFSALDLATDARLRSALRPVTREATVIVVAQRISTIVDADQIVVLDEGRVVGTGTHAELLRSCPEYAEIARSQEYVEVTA
T1 sequence (looked up) 2: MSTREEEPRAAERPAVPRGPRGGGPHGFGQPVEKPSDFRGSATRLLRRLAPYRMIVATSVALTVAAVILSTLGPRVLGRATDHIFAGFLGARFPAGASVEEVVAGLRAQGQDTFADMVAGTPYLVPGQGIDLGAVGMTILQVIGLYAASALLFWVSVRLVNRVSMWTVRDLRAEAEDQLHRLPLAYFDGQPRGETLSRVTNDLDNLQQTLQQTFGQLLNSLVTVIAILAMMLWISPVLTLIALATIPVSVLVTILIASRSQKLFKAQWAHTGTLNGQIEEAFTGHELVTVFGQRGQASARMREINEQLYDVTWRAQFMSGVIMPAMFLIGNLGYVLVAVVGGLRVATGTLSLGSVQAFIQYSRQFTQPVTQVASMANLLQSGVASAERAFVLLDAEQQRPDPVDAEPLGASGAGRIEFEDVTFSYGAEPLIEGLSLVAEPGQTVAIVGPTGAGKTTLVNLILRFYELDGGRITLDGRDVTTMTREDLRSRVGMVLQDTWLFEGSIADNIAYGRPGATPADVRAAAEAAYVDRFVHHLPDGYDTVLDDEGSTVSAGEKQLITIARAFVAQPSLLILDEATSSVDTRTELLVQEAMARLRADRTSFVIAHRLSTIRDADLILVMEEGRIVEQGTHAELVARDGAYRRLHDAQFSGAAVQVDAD
In words: cell-based or functional assay.

For experiment [2], the target named is T1, heterodimeric multidrug resistance ABC …. In words: cell-based or functional assay. The source holds these as a separate data set.
The target of experiment [3] is T2, NBD-truncated OmrDE (OmrD^tcE^tc) (Omithinimicrobium cerasi strain USBA17B2).
T2 chain 1: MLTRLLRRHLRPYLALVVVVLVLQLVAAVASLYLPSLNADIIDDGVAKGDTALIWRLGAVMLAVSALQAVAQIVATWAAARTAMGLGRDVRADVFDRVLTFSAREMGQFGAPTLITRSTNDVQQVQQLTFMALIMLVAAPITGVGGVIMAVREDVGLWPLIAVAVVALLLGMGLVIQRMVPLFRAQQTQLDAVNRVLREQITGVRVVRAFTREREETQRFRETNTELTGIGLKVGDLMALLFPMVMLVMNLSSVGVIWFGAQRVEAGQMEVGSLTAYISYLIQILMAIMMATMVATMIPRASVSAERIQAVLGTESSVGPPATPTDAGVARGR
T2 chain 2: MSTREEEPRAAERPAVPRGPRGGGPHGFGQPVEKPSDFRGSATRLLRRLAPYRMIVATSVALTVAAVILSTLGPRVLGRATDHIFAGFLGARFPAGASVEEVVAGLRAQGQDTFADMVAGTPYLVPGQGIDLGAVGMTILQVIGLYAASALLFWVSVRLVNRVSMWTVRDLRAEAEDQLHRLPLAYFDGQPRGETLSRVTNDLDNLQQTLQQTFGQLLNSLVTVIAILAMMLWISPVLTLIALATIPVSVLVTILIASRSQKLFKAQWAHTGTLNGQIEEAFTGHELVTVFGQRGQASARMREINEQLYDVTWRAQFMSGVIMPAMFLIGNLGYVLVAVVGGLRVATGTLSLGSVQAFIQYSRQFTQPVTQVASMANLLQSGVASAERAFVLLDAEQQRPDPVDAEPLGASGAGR
In words: ITC; replicate #1.

Experiment [4] concerns the target T2, NBD-truncated OmrDE (OmrD^tcE^tc). In words: ITC; replicate #2.
The target of experiment [5] is T3, OmrE (OmrE-His) (Omithinimicrobium cerasi strain USBA17B2, UniProt A0A285VWG3 1-661).
T3 chain: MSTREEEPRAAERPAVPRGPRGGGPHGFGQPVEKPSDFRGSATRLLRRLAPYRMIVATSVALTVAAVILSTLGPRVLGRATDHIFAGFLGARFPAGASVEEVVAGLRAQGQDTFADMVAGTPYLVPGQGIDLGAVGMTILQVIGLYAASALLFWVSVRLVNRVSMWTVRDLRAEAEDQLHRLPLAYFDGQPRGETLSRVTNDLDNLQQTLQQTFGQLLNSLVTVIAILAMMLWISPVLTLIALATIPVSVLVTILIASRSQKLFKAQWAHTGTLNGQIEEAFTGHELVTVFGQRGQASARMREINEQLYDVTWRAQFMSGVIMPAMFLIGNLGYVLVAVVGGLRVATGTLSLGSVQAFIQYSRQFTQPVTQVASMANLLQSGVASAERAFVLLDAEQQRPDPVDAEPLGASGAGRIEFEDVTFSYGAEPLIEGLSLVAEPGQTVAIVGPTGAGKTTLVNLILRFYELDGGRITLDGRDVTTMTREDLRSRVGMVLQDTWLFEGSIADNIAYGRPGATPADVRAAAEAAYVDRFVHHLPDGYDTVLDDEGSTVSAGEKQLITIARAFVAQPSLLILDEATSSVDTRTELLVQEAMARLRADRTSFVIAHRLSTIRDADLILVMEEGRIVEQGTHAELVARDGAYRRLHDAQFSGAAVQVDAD
Put plainly: ITC; replicate #2. A general note: In ITC the heat of successive injections is recorded.

The target of experiment [6] is T4, heterodimeric multidrug resistance ABC transporter OmrDE (Omithinimicrobium cerasi strain USBA17B2, UniProt A0A285VW85 1-577; A0A285VWG3 1-661).
T4 chain 1: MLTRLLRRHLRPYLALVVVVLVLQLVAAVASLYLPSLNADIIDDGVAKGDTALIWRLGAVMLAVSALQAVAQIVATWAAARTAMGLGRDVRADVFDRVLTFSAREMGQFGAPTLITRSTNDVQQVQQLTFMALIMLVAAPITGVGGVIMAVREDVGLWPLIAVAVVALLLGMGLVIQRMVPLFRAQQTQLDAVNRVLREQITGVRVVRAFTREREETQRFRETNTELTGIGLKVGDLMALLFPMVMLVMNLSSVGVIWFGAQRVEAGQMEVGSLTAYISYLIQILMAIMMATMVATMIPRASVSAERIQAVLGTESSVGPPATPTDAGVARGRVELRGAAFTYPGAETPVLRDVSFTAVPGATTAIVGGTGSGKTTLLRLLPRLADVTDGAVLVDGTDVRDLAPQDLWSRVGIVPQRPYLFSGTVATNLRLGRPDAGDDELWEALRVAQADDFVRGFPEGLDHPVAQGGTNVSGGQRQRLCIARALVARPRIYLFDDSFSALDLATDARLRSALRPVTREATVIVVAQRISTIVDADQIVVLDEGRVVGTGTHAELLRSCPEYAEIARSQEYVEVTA
T4 chain 2: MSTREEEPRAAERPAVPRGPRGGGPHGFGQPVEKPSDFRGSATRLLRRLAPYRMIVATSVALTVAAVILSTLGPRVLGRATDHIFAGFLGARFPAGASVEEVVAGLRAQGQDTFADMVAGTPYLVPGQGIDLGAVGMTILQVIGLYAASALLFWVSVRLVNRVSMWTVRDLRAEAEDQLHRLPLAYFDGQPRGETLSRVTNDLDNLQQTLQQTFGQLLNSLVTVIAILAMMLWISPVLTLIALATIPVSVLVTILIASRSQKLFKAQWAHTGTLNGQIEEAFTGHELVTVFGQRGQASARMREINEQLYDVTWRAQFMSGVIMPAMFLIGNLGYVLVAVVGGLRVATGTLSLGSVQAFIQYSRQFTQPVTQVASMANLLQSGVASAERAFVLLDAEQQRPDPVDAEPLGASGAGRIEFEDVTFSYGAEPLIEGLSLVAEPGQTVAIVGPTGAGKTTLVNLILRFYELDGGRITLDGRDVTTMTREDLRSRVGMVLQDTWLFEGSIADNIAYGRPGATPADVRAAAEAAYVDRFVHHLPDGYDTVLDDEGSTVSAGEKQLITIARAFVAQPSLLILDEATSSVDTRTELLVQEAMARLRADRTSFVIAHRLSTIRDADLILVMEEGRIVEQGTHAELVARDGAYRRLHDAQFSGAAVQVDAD
Put plainly: ITC; replicate #2.

For experiment [7], the target named is T2, NBD-truncated OmrDE (OmrD^tcE^tc). In words: ITC; replicate #3.
Experiment [8] has as its target T3, OmrE (OmrE-His). Put plainly: ITC; replicate #3.
For experiment [9], the target named is T4, heterodimeric multidrug resistance ABC …. Put plainly: ITC; replicate #4.

B1: Omithinimicrobium cerasi strain USBA17B2 heliorhodopsin (OcHeR) WT (natural protein, UniProt A0A285W045 1-266, looked up)
chain: MGSTGTGSTASTTRADESRYAGLRRYNVVAAVVHAAQAVAVVVLATDFTLPMTASYLAGPPGSPPGEAVTLWDVPIPLAIATFLALSALFHVIVASPPFFDRYRRGLAQGHNYFRWVEYSLSSSLMIVIIAQLVGISDVVALLGLFGVNASMILFGWLQEKYHQPGDGGWLPFVFGCLAGAVPWVGIVLYTIAPGSTSGAEPPGFVYGIIVSLFLFFNVFALVQWLQYRPVGRFRDYLLGERLYITLSLVAKSALAWQIFGGTLAT
modifications: retinal Schiff base linked to K252
notes: gene codon-optimized for E. coli and chemically synthesized; source: E. coli C43 (DE3), purified (DDM-solubilized membrane fraction, Ni2+-NTA agarose)
The term Kd denotes a measure of binding affinity in units of concentration. Consider B1, for which the “DAPI translocation capacity of OmrDE co-expressed with OcHeR WT in IMVs at 15 min, presence of light against absence of light” value in [1] turned out to be 3 fold. For the same molecule, the “half-life (t1/2) of the G state (554 nm) of the OcHeR photocycle with OmrDE against OcHeR WT alone” value in experiment [1] was 1.6 fold. Besides, the “half-life (t1/2) of the O state (618 nm) of the OcHeR photocycle with OmrDE against OcHeR WT alone” value in [1] turned out to be 2.2 fold. For the same molecule, the “kcat/Km of ATP hydrolysis of purified OmrDE with OcHeR WT (1:1), absence of light” value in experiment [2] amounted to 37.7 M^−1 S^−1. Besides, the “kcat/Km of ATP hydrolysis of purified OmrDE with OcHeR WT (1:1), presence of light (532 nm)” value in [2] amounted to 58.4 M^−1 S^−1. Besides, the Kd in [3] is 42 µM; in experiment [4] it was 29 µM; in the experiment with OmrE (OmrE-His) [5] it was 24 µM; in experiment [6], 122 µM; in experiment [7] it was 46 µM; with OmrE (OmrE-His) [8], 46 µM. The equilibrium dissociation constant (Kd) in experiment [9] came out at 62 µM.
